Biological target: Rae1(31-368)-Nup98(157-213) heterodimer (human), P78406
Test: ITC

With DEMDTHDPNQLRY (modifications not checked) [VSV M NTE peptide] as the binder, how does the Kd read?
The Kd was 117 µM.

From article PMC9376891
